For this assay, the target named is YacG (E. coli) (UniProt P0A8H8). The experiment in a line: SPR. On the technique in general: Surface plasmon resonance follows binding to a sensor surface in real time, without labels.
Sequence of UniProt P0A8H8 (P0A8H8 whole entry): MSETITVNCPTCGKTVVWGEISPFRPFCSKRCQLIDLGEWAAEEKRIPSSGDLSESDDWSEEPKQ

As for “GyrB subunit of E. coli DNA gyrase (from UniProt P0AES6 1-804) (natural protein)”, the response above nonspecific control at 1 uM GyrB stood at 92 RU.

The record behind these values is publication PMC2490753.
